Data as given in patent publication US20220177525A1.
pKd: −log10 of the molar value.

Target: N-peptide (RABV N protein, residues 363-414, [change]) (RABV)

NiP-CTD (C-terminal domain of the P protein of rabies virus strain Nishigahara, residues 186-297, Cy (from UniProt Q9IPJ8 186-296)
pKd: 4.06
